In patent publication US20160151410A1, “CLEARANCE OF BIOACTIVE LIPIDS FROM MEMBRANE STRUCTURES BY CYCLODEXTRINS” (The Trustees of Columbia University in the City of New York, priority 2013, published 2016):

Tests used:
Type in all cases: biochemical
[1] = test system: classical pathway of complement system; test: Complement activation (C3 fixation) by LIPC- or CEase-digested immobilized LDL with human serum; settings: 0-50 μg/ml LIPC; 0-2 hours
Method: 96-well MaxiSorp plates were coated with fresh human LDL (A, D, E), VLDL (B), or NaOH-hydrolyzed LDL (C). After blocking with BSA, the plates, except (C), were digested with LIPC. To test complement activation, the plates were incubated with diluted native human serum (N), C1q-depleted human serum (Cd), factor B-depleted human serum (Bd), or human serum containing Mg-EGTA (ME). C3 fixation on the plate was detected with a monoclonal anti-C3d antibody followed by HRP-conjugated secondary antibody. Specific conditions for LIPC digestion and HRP-catalyzed color development of each experiment were outlined as following: LIPC was used at 10 μg/ml for (A, B, E), 0-50 μg/ml for (D), and no LIPC for (C). LIPC degradation was 1 hour for (D), 2 hours for (A, B), and 0-2 hours for (E). Color development was 15 minutes for (A, B, C, E) and 10 minutes for (D). For NaOH hydrolysis of LDL, 1.35 mg/ml of LDL was incubated in 0.15M NaOH solution at 25° C. for up to 60 minutes. Aliquots were taken out and neutralized with 0.15M HCl at 1, 10, 20, 60 minutes.
LIPC and CEase, both having 8 μUnits of phospholipase A1 activity but having 3 μUnits and 8125 μUnits of triglyceride hydrolase activity respectively, were used for 2 hours digestion of immobilized LDL. Complement activation with diluted native human serum is then determined as in FIG. 1. The HRP-catalyzed color development was 15 minutes.
Human LDL coating and 1 hour (C) or 2 hours (A, B) LIPC digestion was performed as described in FIG. 1. (A) For complement activation, 0-50 μM of phosphocholine was added into diluted native human serum. […]
After thorough washing of the plate, C3 fixation and final membrane attack complex formation on the plate were determined with anti-human C3d antibody and anti-human C5b-9 antibody, in combination with HRP-conjugated secondary antibody, respectively. […] The final peroxidase activity was monitored at 450 nm with 3,3′,5,5′-tetramethyl-benzidine and hydrogen peroxide as substrates after 10 or 15 minutes reaction at room temperature.

[2] = Phospholipase A activity assay; settings: amount of enzyme used for LDL digestion
Method: (§1) Triglyceride hydrolase activity of CEase and LIPC was determined with DMPTB as substrate according to Choi et al. (Choi et al., 2003) Phospholipase A activity of CEase and LIPC was assayed similarly as triglyceride hydrolase activity but with 1.5 mM of 1,2-bis(heptanoylthio)glycerophosphocholine as substrate and assay buffer containing 10 mM of CaCl2 instead of 1 mM of EDTA.

[3] = Triglyceride hydrolase activity assay; settings: amount of enzyme used for LDL digestion
Method: as §1

B1: LIPC: recombinant human LIPC (hepatic lipase) (protein, UniProt P11150 23-499, looked up)
Hepatic triacylglycerol lipase: LGQSLKPEPFGRRAQAVETNKTLHEMKTRFLLFGETNQGCQIRINHPDTLQECGFNSSLPLVMIIHGWSVDGVLENWIWQMVAALKSQPAQPVNVGLVDWITLAHDHYTIAVRNTRLVGKEVAALLRWLEESVQLSRSHVHLIGYSLGAHVSGFAGSSIGGTHKIGRITGLDAAGPLFEGSAPSNRLSPDDANFVDAIHTFTREHMGLSVGIKQPIGHYDFYPNGGSFQPGCHFLELYRHIAQHGFNAITQTIKCSHERSVHLFIDSLLHAGTQSMAYPCGDMNSFSQGLCLSCKKGRCNTLGYHVRQEPRSKSKRLFLVTRAQSPFKVYHYQFKIQFINQTETPIQTTFTMSLLGTKEKMQKIPITLGKGIASNKTYSFLITLDVDIGELIMIKFKWENSAVWANVWDTVQTIIPWSTGPRHSGLVLKTIRVKAGETQQRMTFCSENTDDLLLRPTQEKIFVKCEIKSKTSKRKIR
complement activation, dependence on LIPC degradation [1]: both dose and time-dependent
PLA1 activity [2]: 8 μUnits
TGhydrolase activity [3]: 3 μUnits
